Results taken from patent US20160340429A1 (KADMON, published 2016).

T1: human PDL2 (human, UniProt Q9BQ51 20-219, limits assumed)
T1 sequence (looked up): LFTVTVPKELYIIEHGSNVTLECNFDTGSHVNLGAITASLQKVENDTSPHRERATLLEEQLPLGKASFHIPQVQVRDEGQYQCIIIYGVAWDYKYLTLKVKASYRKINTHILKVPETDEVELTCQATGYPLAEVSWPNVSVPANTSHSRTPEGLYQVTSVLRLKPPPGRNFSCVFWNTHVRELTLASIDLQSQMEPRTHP


Columns and labels:
soluble human PDL1 = target: T2, soluble human PDL1 (human, UniProt Q9NZQ7 19-239, limits assumed); assay: binding assay of FIG. 17
T2 construct: May be the same protein as the human PDL1-Fc; also called soluble PDL1

soluble mouse PDL1 = target: T3, soluble mouse PDL1 (mouse, UniProt Q9EP73 19-238, limits assumed); assay: binding assay of FIG. 17
T3 construct: May be the same protein as the murine PDL1-Fc

human PDL2 = target: T1, human PDL2; assay: binding assay of FIG. 17
[1] = target: T4, human PD-L1 on cells (PDLI-293 / HEK-293 cells expressing PD-L1, MDA-MB-231 cells, activated CD4 cells, … (human, UniProt Q9NZQ7 19-290)); assay: binding to MDA-MB-231 cells, FIG. 19
T4 construct: whole, on cells
T4 sequence (Q9NZQ7 19-290): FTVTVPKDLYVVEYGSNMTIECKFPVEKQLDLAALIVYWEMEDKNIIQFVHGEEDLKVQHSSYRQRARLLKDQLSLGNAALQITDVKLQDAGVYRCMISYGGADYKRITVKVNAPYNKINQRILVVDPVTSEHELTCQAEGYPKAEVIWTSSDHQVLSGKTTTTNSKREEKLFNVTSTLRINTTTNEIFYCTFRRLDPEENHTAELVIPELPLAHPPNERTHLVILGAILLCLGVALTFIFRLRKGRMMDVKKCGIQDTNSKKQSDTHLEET

T2 sequence (Q9NZQ7 19-239 limits assumed): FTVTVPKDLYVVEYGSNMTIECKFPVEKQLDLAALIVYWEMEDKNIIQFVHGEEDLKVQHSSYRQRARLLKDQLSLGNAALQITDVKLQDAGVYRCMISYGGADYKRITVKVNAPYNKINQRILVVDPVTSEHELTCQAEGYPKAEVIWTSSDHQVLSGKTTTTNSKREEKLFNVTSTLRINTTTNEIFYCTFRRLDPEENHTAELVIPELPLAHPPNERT
T3 sequence (Q9EP73 19-238 limits assumed): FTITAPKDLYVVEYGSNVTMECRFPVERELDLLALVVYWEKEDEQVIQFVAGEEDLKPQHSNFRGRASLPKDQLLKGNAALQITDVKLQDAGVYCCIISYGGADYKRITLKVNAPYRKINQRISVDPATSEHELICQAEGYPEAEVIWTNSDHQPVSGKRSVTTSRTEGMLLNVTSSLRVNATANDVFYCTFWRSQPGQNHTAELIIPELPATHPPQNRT

binding result (soluble human PDL1) | binding result (soluble mouse PDL1) | binding result (human PDL2) | binding result [1] | Binder
binds | binds | no binding | binds | tccD7_#114 (antibody, V domains shown, converted to IgG and to an IgG with two Leu-Ala substitutions) VH: EVQLLESGGGLVQPGGSLRLSCAASGFTFSSYLMVWVRQAPGKGLEWVSSIYPSGGITFYADSVKGRFTISRDNSKNTLYLQMNSLRAEDTAIYYCARIKLGTVTTVDYWGQGTLVTVSS VL: QSALTQPASVSGSPGQSITISCTGTSSDVGAYNYVSWYQQHPGKAPKLMIYDVSNRPSGVSNRFSGSKSGNTASLTISGLQAEDEADYYCSSYTSSSTRVFGTGTKVTVLG
binds | binds | no binding | binds | tccD7_#102 (antibody, V domains shown, converted to IgG and to an IgG with two Leu-Ala substitutions; also called tccD7_#2; cD7_#2) VH: EVQLLESGGGLVQPGGSLRLSCAASGFTFSAYRMFWVRQAPGKGLEWVSSIYPSGGITFYADSVKGRFTISRDNSKNTLYLQMNSLRAEDTAIYYCARIKLGTVTTVDYWGQGTLVTVSS VL: QSALTQPASVSGSPGQSITISCTGTSSDVGAYNYVSWYQQHPGKAPKLMIYDVSNRPSGVSNRFSGSKSGNTASLTISGLQAEDEADYYCSSYTSSSTRVFGTGTKVTVLG
